Where no end group is shown, it is not given here.
Columns and labels:
[1] = target: T1, H-2K^d class I molecule on NOD splenocytes (Mus musculus, UniProt P01902); assay type: cell-based
T1 construct: Female NOD splenocytes were cultured with a K^d allele-specific peptide in an attempt to load the empty peptide groove of this class I molecule; endogenous in cells; host or cells: primary splenocytes (macrophage/monocyte and lymphocyte gates) from female NOD mice and control B10.D2 (R103) mice
T1 sequence (P01902 22-368): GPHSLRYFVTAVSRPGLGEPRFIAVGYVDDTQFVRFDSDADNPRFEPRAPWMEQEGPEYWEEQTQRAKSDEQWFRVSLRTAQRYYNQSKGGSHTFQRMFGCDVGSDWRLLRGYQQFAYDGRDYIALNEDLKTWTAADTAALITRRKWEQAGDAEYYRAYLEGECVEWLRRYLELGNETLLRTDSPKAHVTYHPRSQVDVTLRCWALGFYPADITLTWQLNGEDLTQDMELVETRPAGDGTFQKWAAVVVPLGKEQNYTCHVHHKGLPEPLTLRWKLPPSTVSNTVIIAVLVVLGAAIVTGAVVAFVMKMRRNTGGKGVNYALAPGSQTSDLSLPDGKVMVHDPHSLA
T1 sequence (P01887 21-119 partner): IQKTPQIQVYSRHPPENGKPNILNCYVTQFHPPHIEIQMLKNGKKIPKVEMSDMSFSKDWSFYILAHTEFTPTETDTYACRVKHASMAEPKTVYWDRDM

[2] = tested on: H-2K^d target cells

TYQRTRALV [K^d-specific peptide]
mean fluorescence attributable to K^d ([1]; control class I-identical B10.D2 (R103) splenocytes, peptide 480 μM, 5 hours at 37° C.): no change in mean fluorescence
surface expression of K^d (mean fluorescence, FACS) ([1]; female NOD mouse macrophages, peptide 480 μM, 5-hour incubation at 37° C.): stabilized the surface expression of K^d
dose dependence of restoration and stabilization of K^d expression ([1]; female NOD splenocytes): dose dependent
optimal peptide concentration for restoration and stabilization of K^d expression ([1]; female NOD splenocytes): greater than 240 μM
susceptibility to CTL lysis after incubation with peptide [2]: did restore susceptibility to CTLs
susceptibility to CTL lysis after prior incubation with peptide [2]: Neither the susceptibility of control BALB/c targets nor that of NOD male targets to CTL lysis was affected
